In the DeepSol protein solubility set:

Test: soluble on expression in E. coli; label from the status in PepcDB or PDB records

Sequence	soluble on expression in E. coli
MADLLNVLKDKLSGKNVKIVLPEGEDERVLTAATQLQATDYVTPIVLGDETKVQSLAQKLDLDISNIELINPATSELKAELVQSFVERRKGKATEEQAQELLNNVNYFGTMLVYAGKADGLVSGAAHSTGDTVRPALQIIKTKPGVSRTSGIFFMIKGDEQYIFGDCAINPELDSQGLAEIAVESAKSALSFGMDPKVAMLSFSTKGSAKSDDVTKVQEAVKLAQQKAEEEKLEAIIDGEFQFDAAIVPGVAEKKAPGAKLQGDANVFVFPSLEAGNIGYKIAQRLGGYDAVGPVLQGLNSPVNDLSRGCSIEDVYNLSIITAAQALQ	not soluble
MGSDKIHHHHHHMYANASSENGAVNVSDDGPPLRIIHCFRSPVGGVFRHVRDLIEEHVRQGHKVGIVCDSSTGGAHEERLFAQITPMLELGLTRLPIRRSISPGDLLALWKSYKHIKSLRPDILHGHSAKGGALARLIGSLLRANRYRVARLYSPHGGSLHYARNSLKGQLFLRLERFQEHFTDALCFVCNFEQETYETKVGKPRTRTAMIYNGVQESEFETVPPRDGAARFLYIGMLRDLKGPDVFIRAFAKMERSIGQPMSGVIVGDGPDRDKYAAMIATAGLSRRISMHAAMPARQAFELATTVVVPSRAEAMPYIVLEALAAGKTVIASHVGGIPEVLGEDSEALVPAGDADALARTMVKDAADADWAQRVMPHPDSFKAKFSTPVMADEMMKLYRDLLTT	not soluble
MNERIFRENTRPVQVGNLTIGGSEELTIQSMTTTKTHDVEATVAEIHRLEEVGCQIVRVACPDERAANALSAIKKRIHIPLVADIHFDYRLALKAIDAGVDKIRINPGNIGRRDRVEKVVNAAKAKNIPIRIGVNAGSLEKKIIQKYGYPTAEGMVESALAHIKILEDLDFYDIIVSLKASDVNLAIEAYDKASRAFNYPLHLGITESGTQFAGGIKSAAGLGAILSLGIGNTLRVSLSADPVEEIKVAREVLKSFGLSSNAAMLISCPTCGRIEIDLIRIANEVENYIATIKAPIKVAVLGCAVNGPGEAREADIGIAGSNGEGLLFRHGKIIRKVPEAIMVEELKKEIDILAEEYFEKKTDLESLR	not soluble
STSGANSSGSYLPSEIRSSKIDDNYLKELNEDLKLRKQELLEMLKPLEDKNNLLFQRLMSNLEEKQRSLQIMRQIMAGKGCEESSVMELLKEAEEMKQNLERKNKMLRKEMEMLWNKTFEAEELSDQQKAPQTKNKADLQDGKEKQQRKMEWVKYQEQNNILQNDFHGKVIELRIEALKNYQKANDLKLSLYLQQNFEPMQAFLNLPGSQGIRIV	soluble
MAKKKKKKSFNVTRPTDPPVYPVTVPILGHIIQFGKSPLGFMQECKRQLKSGIFTINIVGKRVTIVGDPHEHSRFFLPRNEVLSPREVYSFMVPVFGEGVAYAAPYPRMREQLNFLAEELTIAKFQNFVPAIQHEVRKFMAANWDKDEGEINLLEDCSTMIINTACQCLFGEDLRKRLDARRFAQLLAKMESSLIPAAVFLPILLKLPLPQSARCHEARTELQKILSEIIIARKAAAVNKDSSTSDLLSGLLSAVYRDGTPMSLHEVCGMIVAAMFAGQHTSSITTTWSMLHLMHPANVKHLEALRKEIEEFPAQLNYNNVMDEMPFAERCARESIRRDPPLLMLMRKVMADVKVGSYVVPKGDIIACSPLLSHHDEEAFPEPRRWDPERDEKVEGAFIGFGAGVHKCIGQKFGLLQVKTILATAFRSYDFQLLRDEVPDPDYHTMVVGPTASQCRVKYIRRKAAAAHHHHHHHH	soluble
MKFYNREKELNYLKTYCQLDPNSILFVYGPKSSGKSTVMRRVIKELEDSNIVFFYYNLRKYATYSKEEFLRVFFEKSEKKYLLNKLELNLGVFKFGVEENFDFNNLKLNDVFAKINESINAVVEDGKKPVLIIDELQKLKNIYFNGGKSLLNELFNLFVSLTKMEHLCHVICLTSDTLFIEEIYQSSTLENTSKYYLIDWLRKGTIRNILKEEGFSEEEINYCLDYLSLPYEIVDLIENKKLGLSVEETIRQWINIEKDKIKYLIDTTDLDEEELYKVLSKFKDKIKISYEKEVKKEEMKYFKFLIKNEILFYDVINGIIKPTSVKKWYAIREILK	not soluble
GPGSMVVASCPGKVLILGGYLIVEEPNVGISVGTTARFVTRVASWKKCSDGKCRVHIVSSQFNKEFTFECAAEEDSDSTIKIVQLEGAPSPFLFYGILYSVAGALLFGGDIFRDVTLELLADNDFYSQRNYLESQGKPVTAANLRLIPRYTPLLGEVSKTGLGSSAAMTTSVVACLLQLYVFDSKKNNATESVERAPELPLRLEDVTEFIHRISQVAHCVAQGKVGSGFDVYTATFGTCVYRRFSARVLEKLVKGNEPPKRVTIPLLRECVETDEVWVQRIPFRLPTGLQLLLGDVHKGGTETPGMVSKVMSWRRSVTTDPNSLWERLRMSNEKYVEALQGLIKQSQEAPVAYTEAVKNLKSVVLAKHNPSTEAERLWVEAASVASTSRRYLREMGEAAQVQIEPPELTSLLDATCSIPGVFAVGCPGAGGYDAVFALVLGEEVCSAVERFWECYNDLQVCPLLVRGDANGLVLD	not soluble
MELLCPAGNLPALKAAIDNGADAVYIGLKDDTNARHFAGLNFTDKKLQEAVNYVHSRKRKLHIAINTFAHPDGYARWQRAVDMAAQLGADALILADLAMLEYAAERYPQVERHVSVQASATNDEAIRFYQRHFDVARVVLPRVLSMHQVKQLSRTSPVPLEVFAFGSLCIMAEGRCYLSSYLTGESPNTVGACSPARFVRWQQTPQGMESRLNDVLIDRYEDHENAGYPTLCKGRYRVDGQRYHALEEPTSLNTLELLPELFAANIASVKIEGRQRSPAYVSQVAKVWRQAIDLYQANPAQFAAKAEWMEQLGAMSEGTQTTLGAYHRKWQ	not soluble
MNDFNTAFANIDEKAIPNDEKGAANGVATLNSSGKLAQMPSASDVGALPITGGEMQGALKLKANQYGGSGPADEKYALDCQNSNIVNVNRILTADPAGSASEGWGFQREDDPDAYDVIWASNGTLYFTPGFKYNTPPYPANQRVLATTDNIALTNYLRQEYNKLKESEGTPTLNDIINGFGFCYNDSSNGAGLDGTYLTVSGMLDNKYRLQLLGQYNGSNWLAYRTRNGDEQSWNPWHKVLTDNINAAISARHQYTSSSYPQIYGNGILQLGGDSRNEYGVVLRSNGTDEANAFRPSVNAGTTGHLYLGVANQKWRAVFAQNGTIQTSDRNAKHDITDLDPEKITAFIMGLKPSSYVFNDADSGRTHWGLISQDIEELFPQLGMTSMDFAGFIKSPKTEDYYEDVPETVTDEETGEEKTVTRKELKTRTVEGEYIYSLRYDEFLEHHHHHH	soluble
DIISVALKRHSTKAFDASKKLTAEEAEKIKTLLQYSPSSTNSQPWHFIVASTEEGKARVAKSAAGTYVFNERKMLDASHVVVFCAKTAMDDAWLERVVDQEEADGRFNTPEAKAANHKGRTYFADMHRVDLKDDDQWMAKQVYLNVGNFLLGVGAMGLDAVPIEGFDAAILDEEFGLKEKGFTSLVVVPVGHHSVEDFNATLPKSRLPLSTIVTEC	soluble
MVNKKRQVRFEFFQVNGKAQEGEKIVKGLFDLYPLADRINSISNYTDRDVILFGEKVRMDRFFEVSSSPELYAMHFTRLRNDKPAYVELNNEVLKEIPLNPGEYIAEDISCLYDRELSVLMVQRNIHSLSPSGIEDYFTEMSDDLVEIELLPVVNKEIISKALANEKFRKLELRAGSMNTTSDRSGLRKVLGPFMELFEKFEGTNFVIEISSGRSKKDLSEDQMKEVITAIEQDKSLFSSAIVSAKKSKEVPVEKYDLINGKLYVYRSFDLPDGAFLKSDSVIDNIKNYYFHPNEGGYRKQIIDAVK	not soluble
MRRKHDWLRETYRKSLEKIPERPVAHRTLSNIAPDPLYTPEDIGVLDPEYEEKRGFPGEFPYTRGVYGSMYRSKLWTMRMFAGFGTAEQTNERFKKLLKAGQTGLSVAFDLPTLMGYDSDHPLSKGEVGKCGVAVSSLADMEILFEGINLEEVTTSMTINSPANAIWAMYLAVAKKRGYDWKKLGGTIQNDILKEYIAQKEFIFPPEPSVKLVIDTFEWGPKNVPKWNFISVSGYHIREAGSTAVQELAWTLADGFEYVEAALKRGLDIDEFAPRISFFFDVHNDFFEEIAKFRAARRIWAKEMRYRYKAKNPQSWMLRTHAQTAGVSLTAQQPLNNIARVAIQALAAVLGGTNSLHTDAYDEALALPTEESATIALRTQQIIAYETGVTHTIDPLAGSYYVEWLTDEMERQAMEIIEEIRRMGGVVRAIEEGYFLRELAEASYRYQQEVERKERIIVGVNAFTDEIPLKVPIQLVDPEVERVQAERLARVRRERDPKRVEEALQGLRRAAVEGQNTMPHFVECALAYCTLGEMMDVLREVYGTYQEPAYV	soluble
